Experimental data from the supplement of paper PMC11908140.

B1: library; numbered along this chain (parent)
chain: MRKPRAAVGSGHRKQAASQEGRQKHAKNNSQAKPSACDGLARQPEEVVLQASVSSYHLFRDVAEVTAFRGSLLSWYDQEKRDLPWRRRAEDEMDLDRRAYAVWVSEVMLQQTQVATVINYYTGWMQKWPTLQDLASASLEEVNQLWAGLGYYSRGRRLQEGARKVVEELGGHMPRTAETLQQLLPGVGRYTAGAIASIAFGQATGVVDGNVARVLCRVRAIGADPSSTLVSQQLWGLAQQLVDPARPGDFNQAAMELGATVCTPQRPLCSQCPVESLCRARQRVEQEQLLASGSLSGSPDVEECAPNTGQCHLCLPPSEPWDQTLGVVNFPRKASRKPPREESSATCVLEQPGALGAQILLVQRPNSGLLAGLWEFPSVTWEPSEQLQRKALLQELQRWAGPLPATHLRHLGEVVHTFSHIKLTYQVYGLALEGQTPVTTVPPGARWLTQEEFHTAAVSTAMKKVFRVYQGQQPGTCMGSKRSQVSSPCSRKKPRMGQQVLDNFFRSHISTDAHSLNSAAQ

Variants of: B1
Experiment: 8OG:A repair function score (normalized; synonymous = 0, nonsense = -1) (normalized log-likelihood score); higher = more repair activity (WT-like)
Settings: with 8OG:A DNA repair reporter (GFP) in HEK-293 MUTYH KO cells
Protocol: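 Saturation mutagenesis (NNN codon scan) of the MUTYH cDNA (521-aa nuclear isoform NM_001048174.1 / NP_001041639), stably expressed under doxycycline induction in HEK-293 MUTYH knockout cells. Cells were co-transfected with an 8OG:A-bearing GFP repair reporter plus mCherry and sorted 72 h later into GFP+ and GFP− bins, three replicates per tile. The Rosace log2 enrichment (GFP+ vs GFP−) was converted per tile to a normalized function score with synonymous variants centered at 0 and nonsense variants (codons 1-471) at -1; low-abundance variants were removed.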

Row | Variant | 8OG:A repair function score
1 | MRKPRAAVGSGHRKQAASQEGRQKHAKNNSQAKPSACDGLARQPEEVVLQASVSSYHLFRDVAEVTAFRGSLLSWYDQEKRDLPWRRRAEDEMDLDRRAYAVWVSEVMLQQTQVATVINYYTGWMQKWPTLQDLAFASLEEVNQLWAGLGYYSRGRRLQEGARKVVEELGGHMPRTAETLQQLLPGVGRYTAGAIASIAFGQATGVVDGNVARVLCRVRAIGADPSSTLVSQQLWGLAQQLVDPARPGDFNQAAMELGATVCTPQRPLCSQCPVESLCRARQRVEQEQLLASGSLSGSPDVEECAPNTGQCHLCLPPSEPWDQTLGVVNFPRKASRKPPREESSATCVLEQPGALGAQILLVQRPNSGLLAGLWEFPSVTWEPSEQLQRKALLQELQRWAGPLPATHLRHLGEVVHTFSHIKLTYQVYGLALEGQTPVTTVPPGARWLTQEEFHTAAVSTAMKKVFRVYQGQQPGTCMGSKRSQVSSPCSRKKPRMGQQVLDNFFRSHISTDAHSLNSAAQ [S136F] | -0.278
2 | MRKPRAAVGSGHRKQAASQEGRQKHAKNNSQAKPSACDGLARQPEEVVLQASVSSYHLFRDVAEVTAFRGSLLSWYDQEKRDLPWRRRAEDEMDLDRRAYAVWVSEVMLQQTQVATVINYYTGWMQKWPTLQDLALASLEEVNQLWAGLGYYSRGRRLQEGARKVVEELGGHMPRTAETLQQLLPGVGRYTAGAIASIAFGQATGVVDGNVARVLCRVRAIGADPSSTLVSQQLWGLAQQLVDPARPGDFNQAAMELGATVCTPQRPLCSQCPVESLCRARQRVEQEQLLASGSLSGSPDVEECAPNTGQCHLCLPPSEPWDQTLGVVNFPRKASRKPPREESSATCVLEQPGALGAQILLVQRPNSGLLAGLWEFPSVTWEPSEQLQRKALLQELQRWAGPLPATHLRHLGEVVHTFSHIKLTYQVYGLALEGQTPVTTVPPGARWLTQEEFHTAAVSTAMKKVFRVYQGQQPGTCMGSKRSQVSSPCSRKKPRMGQQVLDNFFRSHISTDAHSLNSAAQ [S136L] | -0.0288
3 | MRKPRAAVGSGHRKQAASQEGRQKHAKNNSQAKPSACDGLARQPEEVVLQASVSSYHLFRDVAEVTAFRGSLLSWYDQEKRDLPWRRRAEDEMDLDRRAYAVWVSEVMLQQTQVATVINYYTGWMQKWPTLQDLAIASLEEVNQLWAGLGYYSRGRRLQEGARKVVEELGGHMPRTAETLQQLLPGVGRYTAGAIASIAFGQATGVVDGNVARVLCRVRAIGADPSSTLVSQQLWGLAQQLVDPARPGDFNQAAMELGATVCTPQRPLCSQCPVESLCRARQRVEQEQLLASGSLSGSPDVEECAPNTGQCHLCLPPSEPWDQTLGVVNFPRKASRKPPREESSATCVLEQPGALGAQILLVQRPNSGLLAGLWEFPSVTWEPSEQLQRKALLQELQRWAGPLPATHLRHLGEVVHTFSHIKLTYQVYGLALEGQTPVTTVPPGARWLTQEEFHTAAVSTAMKKVFRVYQGQQPGTCMGSKRSQVSSPCSRKKPRMGQQVLDNFFRSHISTDAHSLNSAAQ [S136I] | -0.0848
4 | MRKPRAAVGSGHRKQAASQEGRQKHAKNNSQAKPSACDGLARQPEEVVLQASVSSYHLFRDVAEVTAFRGSLLSWYDQEKRDLPWRRRAEDEMDLDRRAYAVWVSEVMLQQTQVATVINYYTGWMQKWPTLQDLAGASLEEVNQLWAGLGYYSRGRRLQEGARKVVEELGGHMPRTAETLQQLLPGVGRYTAGAIASIAFGQATGVVDGNVARVLCRVRAIGADPSSTLVSQQLWGLAQQLVDPARPGDFNQAAMELGATVCTPQRPLCSQCPVESLCRARQRVEQEQLLASGSLSGSPDVEECAPNTGQCHLCLPPSEPWDQTLGVVNFPRKASRKPPREESSATCVLEQPGALGAQILLVQRPNSGLLAGLWEFPSVTWEPSEQLQRKALLQELQRWAGPLPATHLRHLGEVVHTFSHIKLTYQVYGLALEGQTPVTTVPPGARWLTQEEFHTAAVSTAMKKVFRVYQGQQPGTCMGSKRSQVSSPCSRKKPRMGQQVLDNFFRSHISTDAHSLNSAAQ [S136G] | 0.03
5 | MRKPRAAVGSGHRKQAASQEGRQKHAKNNSQAKPSACDGLARQPEEVVLQASVSSYHLFRDVAEVTAFRGSLLSWYDQEKRDLPWRRRAEDEMDLDRRAYAVWVSEVMLQQTQVATVINYYTGWMQKWPTLQDLAHASLEEVNQLWAGLGYYSRGRRLQEGARKVVEELGGHMPRTAETLQQLLPGVGRYTAGAIASIAFGQATGVVDGNVARVLCRVRAIGADPSSTLVSQQLWGLAQQLVDPARPGDFNQAAMELGATVCTPQRPLCSQCPVESLCRARQRVEQEQLLASGSLSGSPDVEECAPNTGQCHLCLPPSEPWDQTLGVVNFPRKASRKPPREESSATCVLEQPGALGAQILLVQRPNSGLLAGLWEFPSVTWEPSEQLQRKALLQELQRWAGPLPATHLRHLGEVVHTFSHIKLTYQVYGLALEGQTPVTTVPPGARWLTQEEFHTAAVSTAMKKVFRVYQGQQPGTCMGSKRSQVSSPCSRKKPRMGQQVLDNFFRSHISTDAHSLNSAAQ [S136H] | -0.136
6 | MRKPRAAVGSGHRKQAASQEGRQKHAKNNSQAKPSACDGLARQPEEVVLQASVSSYHLFRDVAEVTAFRGSLLSWYDQEKRDLPWRRRAEDEMDLDRRAYAVWVSEVMLQQTQVATVINYYTGWMQKWPTLQDLAKASLEEVNQLWAGLGYYSRGRRLQEGARKVVEELGGHMPRTAETLQQLLPGVGRYTAGAIASIAFGQATGVVDGNVARVLCRVRAIGADPSSTLVSQQLWGLAQQLVDPARPGDFNQAAMELGATVCTPQRPLCSQCPVESLCRARQRVEQEQLLASGSLSGSPDVEECAPNTGQCHLCLPPSEPWDQTLGVVNFPRKASRKPPREESSATCVLEQPGALGAQILLVQRPNSGLLAGLWEFPSVTWEPSEQLQRKALLQELQRWAGPLPATHLRHLGEVVHTFSHIKLTYQVYGLALEGQTPVTTVPPGARWLTQEEFHTAAVSTAMKKVFRVYQGQQPGTCMGSKRSQVSSPCSRKKPRMGQQVLDNFFRSHISTDAHSLNSAAQ [S136K] | 0.0771
